The values below come from paper PMC6778522.

The series concerns the target PRC2 catalytic core (EZH2-EED-SUZ12 VEFS) (UniProt Q15910;O75530;Q15022 1-746;1-441;545-726). As to the kind of experiment: competition.

PRC2 catalytic core (EZH2-EED-SUZ12 VEFS), sequence (Q15910 whole entry, chain 1 of 3): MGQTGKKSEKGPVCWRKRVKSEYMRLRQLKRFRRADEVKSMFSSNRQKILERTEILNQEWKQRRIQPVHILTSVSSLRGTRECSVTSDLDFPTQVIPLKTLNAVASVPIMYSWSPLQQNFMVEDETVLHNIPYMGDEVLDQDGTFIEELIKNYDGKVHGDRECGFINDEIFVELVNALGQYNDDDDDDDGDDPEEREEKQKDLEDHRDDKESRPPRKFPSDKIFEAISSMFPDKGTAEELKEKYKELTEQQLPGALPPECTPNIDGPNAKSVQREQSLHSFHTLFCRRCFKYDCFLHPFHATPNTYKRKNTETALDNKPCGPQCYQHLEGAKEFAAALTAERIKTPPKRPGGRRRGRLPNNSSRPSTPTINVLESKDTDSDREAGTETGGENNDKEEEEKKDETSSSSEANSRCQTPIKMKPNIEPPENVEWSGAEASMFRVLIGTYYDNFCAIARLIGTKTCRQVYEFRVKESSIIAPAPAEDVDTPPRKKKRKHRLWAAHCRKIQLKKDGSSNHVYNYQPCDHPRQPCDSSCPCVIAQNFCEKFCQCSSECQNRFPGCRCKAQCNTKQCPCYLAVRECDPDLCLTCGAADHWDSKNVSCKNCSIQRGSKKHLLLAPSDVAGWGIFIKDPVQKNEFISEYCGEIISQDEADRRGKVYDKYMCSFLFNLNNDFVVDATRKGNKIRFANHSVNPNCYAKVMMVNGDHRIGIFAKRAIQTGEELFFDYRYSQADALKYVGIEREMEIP
PRC2 catalytic core (EZH2-EED-SUZ12 VEFS), sequence (O75530 whole entry, chain 2 of 3): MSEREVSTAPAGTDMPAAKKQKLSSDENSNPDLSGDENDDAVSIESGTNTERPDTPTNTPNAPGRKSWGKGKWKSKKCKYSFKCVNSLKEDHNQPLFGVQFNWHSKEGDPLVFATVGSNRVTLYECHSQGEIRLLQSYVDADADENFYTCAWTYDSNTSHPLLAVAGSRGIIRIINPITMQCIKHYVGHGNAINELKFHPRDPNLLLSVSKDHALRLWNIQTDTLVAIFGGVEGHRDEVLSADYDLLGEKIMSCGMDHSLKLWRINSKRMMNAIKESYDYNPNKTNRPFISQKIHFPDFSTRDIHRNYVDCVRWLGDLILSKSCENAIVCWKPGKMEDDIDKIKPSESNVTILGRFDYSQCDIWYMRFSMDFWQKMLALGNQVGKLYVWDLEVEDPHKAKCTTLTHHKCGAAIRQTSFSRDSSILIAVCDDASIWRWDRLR
PRC2 catalytic core (EZH2-EED-SUZ12 VEFS), sequence (Q15022 545-726, chain 3 of 3): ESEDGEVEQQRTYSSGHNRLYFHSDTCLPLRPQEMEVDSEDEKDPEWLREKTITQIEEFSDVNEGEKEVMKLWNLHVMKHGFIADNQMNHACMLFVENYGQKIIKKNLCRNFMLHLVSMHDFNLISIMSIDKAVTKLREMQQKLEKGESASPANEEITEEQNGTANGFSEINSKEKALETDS

B1: PIM1 G4 RNA competitor (structured_RNA)
RNA: CGGGGGUGGGGGGUGGGGGUGGGU
B1: the binding result is given as “binds”.
